In article PMC11297322, “MEILB2-BRME1 forms a V-shaped DNA clamp upon BRCA2-binding in meiotic recombination” (Nature Communications, 2023):
One block for each binder: values may come before it.

B4: MBP-MEILB2 (mouse MEILB2 22–338 with N-terminal MBP-tag) (domain or fragment, UniProt Q9D4G2 22-338, looked up)
chain: EEFVKVRKKDLERLTTEVMQIRDFLPRILNGELLESFQKLKMVEKNLERKEQELEQLIMDREHFKARLETAQADSGREKKEKLALRQQLNEAKQQLLQQAEYCTQMGAVTCTLLWGVSSSEEVVKTILGGDKALKFFNITGQTMESFVKSLDGDVKEVDSDENQFVFALAGIVTNVAAIACGREFLVNSSRVLLDTMLQLLGDLKPGQCTKLKVLMLMSLYNVSINSKGLKYITESPGFIPLLWWLLSDPDAEVCLHTLRLIQSVVLEPDVFSKVASELQSSLPLQRILAMSKSRNSHLQSAAQELLEDLRALDCNV
notes: MEILB2 (HSF2BP), mouse, residues 22-338; also called MEILB2 with N-terminal MBP-tag; source: E. coli BL21 (DE3), purified in complex; not shown: MBP, N-terminal, kept
B5: MEILB2 (mouse MEILB2 amino-acids 22–338, the full structured region) (domain or fragment, UniProt Q9D4G2 22-338, looked up)
chain: EEFVKVRKKDLERLTTEVMQIRDFLPRILNGELLESFQKLKMVEKNLERKEQELEQLIMDREHFKARLETAQADSGREKKEKLALRQQLNEAKQQLLQQAEYCTQMGAVTCTLLWGVSSSEEVVKTILGGDKALKFFNITGQTMESFVKSLDGDVKEVDSDENQFVFALAGIVTNVAAIACGREFLVNSSRVLLDTMLQLLGDLKPGQCTKLKVLMLMSLYNVSINSKGLKYITESPGFIPLLWWLLSDPDAEVCLHTLRLIQSVVLEPDVFSKVASELQSSLPLQRILAMSKSRNSHLQSAAQELLEDLRALDCNV
notes: MEILB2 (HSF2BP), mouse, residues 22-338: α-helical region (α1, α2) and C-terminal ARM domain; the N-terminal 21 residues removed; also called HSF2BP; source: E. coli BL21 (DE3), purified in complex (Ni-NTA, amylose, ion exchange, TEV cleavage, SEC); not shown: His6-MBP (pMAT11) or MBP (pRSF-Duet1), N-terminal, cleaved
B6: MEILB2 K26E (mouse MEILB2 22–338) (domain or fragment, UniProt Q9D4G2 22-338, looked up)
chain: EEFVEVRKKDLERLTTEVMQIRDFLPRILNGELLESFQKLKMVEKNLERKEQELEQLIMDREHFKARLETAQADSGREKKEKLALRQQLNEAKQQLLQQAEYCTQMGAVTCTLLWGVSSSEEVVKTILGGDKALKFFNITGQTMESFVKSLDGDVKEVDSDENQFVFALAGIVTNVAAIACGREFLVNSSRVLLDTMLQLLGDLKPGQCTKLKVLMLMSLYNVSINSKGLKYITESPGFIPLLWWLLSDPDAEVCLHTLRLIQSVVLEPDVFSKVASELQSSLPLQRILAMSKSRNSHLQSAAQELLEDLRALDCNV
notes: MEILB2 (HSF2BP), mouse, residues 22-338 with K26E; source: E. coli BL21 (DE3), purified in complex (Ni-NTA, amylose, ion exchange, TEV cleavage, SEC); not shown: His6-MBP (pMAT11) or MBP (pRSF-Duet1), N-terminal, cleaved
B7: MEILB2α (mouse MEILB2 amino-acids 22–81) (domain or fragment, UniProt Q9D4G2 22-81, looked up)
chain: EEFVKVRKKDLERLTTEVMQIRDFLPRILNGELLESFQKLKMVEKNLERKEQELEQLIMD
notes: MEILB2 (meiotic localiser of BRCA2; HSF2BP), mouse, residues 22-81: the α1 helix and the beginning of the α2 helix; Two copies stand in the 2:2 core complex with BRME1; also called HSF2BP; source: E. coli BL21 (DE3), purified with BRME1 (Ni-NTA, amylose, ion exchange, TEV cleavage, SEC); not shown: His6-MBP (pMAT11) or MBP (pRSF-Duet1), N-terminal, cleaved

What was measured:
[1] = target: B6; experiment: not stated; BRCA2MBD–MEILB2–BRME1MBD complex with MEILB2 K26E; data in Supplementary Figs. 2 and 12c; settings: both partners purified
[2] = target: B5; experiment: SEC-MALS; MEILB2–BRME1MBD complex at >5 mg/ml, Superdex 200 Increase 10/300 GL, 20 mM HEPES pH 7.5, 150 mM KCl, 2 mM DTT; settings: both partners purified
[3] = target: B4; experiment: SEC-MALS; BRCA2MBD–MEILB2–BRME1MBD ternary complex at >5 mg/ml, Superdex 200 Increase 10/300 GL, 20 mM HEPES pH 7.5, 500 mM KCl, 2 mM DTT; settings: both partners purified
[4] = target: B5; experiment: as above; settings: both partners purified
[5] = target: B5; experiment: not stated; BRCA2MBD–MEILB2 in the absence of BRME1MBD, in solution; data in Supplementary Fig. 14; settings: both partners purified
[6] = target: the molecule itself; experiment: SEC-MALS; BRCA2MBD–MEILB2–BRME1MBD ternary complex at >5 mg/ml, Superdex 200 Increase 10/300 GL, 20 mM HEPES pH 7.5, 500 mM KCl, 2 mM DTT
[7] = target: the molecule itself; experiment: not stated; BRCA2MBD–MEILB2 in the absence of BRME1MBD, in solution; data in Supplementary Fig. 14
[8] = target: the molecule itself; experiment: SEC-MALS; MEILB2–BRME1MBD complex at >5 mg/ml, Superdex 200 Increase 10/300 GL, 20 mM HEPES pH 7.5, 150 mM KCl, 2 mM DTT
[9] = target: the molecule itself; experiment: not stated; BRCA2MBD–MEILB2–BRME1MBD complex with MEILB2 K26E; data in Supplementary Figs. 2 and 12c
[10] = target: the molecule itself; experiment: crystal structure; MEILB2α–BRME1MBD (22–81; 540–574) 2:2 core complex; crystals grown on ice in 20 mM HEPES pH 7.5, 150 mM KCl; 1.50 Å; one 2:2 complex in the asymmetric unit
[11] = target: B7; experiment: as above; settings: both partners purified

Binder: B4
stoichiometry N [6]: 4 MEILB2 chains in the 2:4:4 complex (with BRCA2MBD)

Binder: B5
stoichiometry N [7]: 8 MEILB2 chains in the 4:8 oligomer (with BRCA2MBD)
stoichiometry N [8]: 2 MEILB2 chains in the 2:2 complex
stoichiometry N [6]: 4 MEILB2 chains in the 2:4:4 complex (with BRCA2MBD)

Binder: B6
stoichiometry N [9]: 4 MEILB2 chains in the 2:4:4 complex (with BRCA2MBD)

Binder: B7
binding result [10]: binds

Now from value to binder:

stoichiometry N [1]: 1 BRME1MBD per MEILB2 (4:4 in the 2:4:4 complex)
stoichiometry N [2]: 1 BRME1MBD per MEILB2 (2:2)
stoichiometry N [3]: 1 BRME1MBD per MEILB2 (4:4 in the 2:4:4 complex)
stoichiometry N [4]: 1 BRME1MBD per MEILB2 (4:4 in the 2:4:4 complex)
B1: BRME1MBD (mouse BRME1 amino-acids 540–578) (domain or fragment, UniProt Q6DIA7 540-578, looked up)
chain: RMQDATDTVRGLVVELSGLNRLIMSTHRDLEAFKRRKTK
notes: source: E. coli BL21 (DE3), purified in complex with MEILB2 (Ni-NTA, amylose, ion exchange, TEV cleavage, SEC); not shown: His6, N-terminal, cleaved

stoichiometry N [5]: 0.5 BRCA2MBD per MEILB2 (4:8)
stoichiometry N [1]: 0.5 BRCA2MBD per MEILB2 (2:4 in the 2:4:4 complex)
stoichiometry N [4]: 0.5 BRCA2MBD per MEILB2 (2:4 in the 2:4:4 complex)
B2: BRCA2MBD (mouse BRCA2 amino-acids 2232–2283, MEILB2-binding domain) (domain or fragment, UniProt P97929 2232-2283, looked up)
chain: PIKRSLLNEFDRIIESKGKSLTPSKSTPDGTVKDRSLFTHHMSLEPVTCGPF
notes: source: E. coli BL21 (DE3), purified in complex with MEILB2 (Ni-NTA, amylose, ion exchange, TEV cleavage, SEC); not shown: His6-MBP (pMAT11) or MBP (pRSF-Duet1), N-terminal, cleaved

stoichiometry N [3]: 0.5 BRCA2MBD per MEILB2 (2:4 in the 2:4:4 complex)
B3: MBP-BRCA2MBD (mouse BRCA2 2232–2283 with N-terminal MBP-tag) (domain or fragment, UniProt P97929 2232-2283, looked up)
chain: PIKRSLLNEFDRIIESKGKSLTPSKSTPDGTVKDRSLFTHHMSLEPVTCGPF
notes: also called BRCA2MBD with N-terminal MBP-tag; source: E. coli BL21 (DE3), purified in complex; not shown: MBP, N-terminal, kept

binding result [11]: binds
B8: BRME1MBD ΔRKTK (mouse BRME1 amino-acids 540–574) (domain or fragment, UniProt Q6DIA7 540-574, looked up)
chain: RMQDATDTVRGLVVELSGLNRLIMSTHRDLEAFKR
notes: BRME1 (BRCA2 and MEILB2-associating protein 1); The crystallography methods give 540–574 for the crystallised BRME1 chain, the results give 540–578; also called BRME1 540–574; BRME1MBD (in the crystallography methods); source: E. coli BL21 (DE3), purified with MEILB2 (Ni-NTA, amylose, ion exchange, TEV cleavage, SEC); not shown: His6, N-terminal, cleaved
